This is an account of results in IntAct's records for PubMed 27519415.

The labels stand for the following.
B1: Glutaredoxin-3 (Homo sapiens), O76003 (parent)
chain: MAAGAAEAAVAAVEEVGSAGQFEELLRLKAKSLLVVHFWAPWAPQCAQMNEVMAELAKELPQVSFVKLEAEGVPEVSEKYEISSVPTFLFFKNSQKIDRLDGAHAPELTKKVQRHASSGSFLPSANEHLKEDLNLRLKKLTHAAPCMLFMKGTPQEPRCGFSKQMVEILHKHNIQFSSFDIFSDEEVRQGLKAYSSWPTYPQLYVSGELIGGLDIIKELEASEELDTICPKAPKLEERLKVLTNKASVMLFMKGNKQEAKCGFSKQILEILNSTGVEYETFDILEDEEVRQGLKAYSNWPTYPQLYVKGELVGGLDIVKELKENGELLPILRGEN
B2: Glutaredoxin-3 (Homo sapiens), O76003 (parent)
chain: B1 chain
partner: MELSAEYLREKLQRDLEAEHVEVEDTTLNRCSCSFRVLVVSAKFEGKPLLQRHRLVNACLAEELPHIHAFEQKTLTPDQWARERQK

The variants in the first test derive from B1. The conditions noted are these: with cpin1_human CIAPIN1, Q6FI81.
cpin1_human CIAPIN1, Q6FI81, sequence (Q6FI81 whole entry): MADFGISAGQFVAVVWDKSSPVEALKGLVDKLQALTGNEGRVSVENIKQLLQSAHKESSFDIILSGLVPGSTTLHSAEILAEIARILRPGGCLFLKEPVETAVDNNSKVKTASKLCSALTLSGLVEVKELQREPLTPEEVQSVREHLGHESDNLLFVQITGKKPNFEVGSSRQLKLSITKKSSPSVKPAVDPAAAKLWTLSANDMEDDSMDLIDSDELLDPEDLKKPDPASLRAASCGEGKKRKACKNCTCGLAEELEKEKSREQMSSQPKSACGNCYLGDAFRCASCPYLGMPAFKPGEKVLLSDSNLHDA
As for C159S;W197D;P198A;C261S;W299D;P300A, the “effect of a mutation on the interaction” value was “disrupting interaction strength”.

The variants in a further test derive from B2. The conditions noted are these: with bola2_human BOLA2, Q9H3K6.
For the variant C159S;W197D;P198A, the “effect of a mutation on the interaction” value is listed as “decreasing interaction strength”. On the same count and under the same terms, the value for C261S;W299D;P300A was “decreasing interaction strength”; that for C159S;W197D;P198A;C261S;W299D;P300A was “disrupting interaction strength”.
